Non-standard residues stand in square brackets, D forms with d. No end group written: not given here. Sta = CC(C)C[C@H](N)[C@@H](O)CC(=O)O
Experiments:
[1] = target: T1, Δ2,3-452H soluble BACE (S174I, N223A, histidine tag), baculovirus/Sf9 (human, UniProt P56817 22-452); assay: affinity chromatography on the immobilised inhibitor peptide
T1 construct: not shown: histidine tag

[2] = target: T2, Δ2,3-452H,NINL soluble BACE (S174I, N223A, R42L43P44R45 changed to NINL, histidine tag), baculovirus/Sf9 (human, UniProt P56817 46-452); assay: as above
T2 construct: not shown: histidine tag
T2 sequence (P56817 other isoform, or with tags, fused parts or gaps S174I N223A S174I N223A): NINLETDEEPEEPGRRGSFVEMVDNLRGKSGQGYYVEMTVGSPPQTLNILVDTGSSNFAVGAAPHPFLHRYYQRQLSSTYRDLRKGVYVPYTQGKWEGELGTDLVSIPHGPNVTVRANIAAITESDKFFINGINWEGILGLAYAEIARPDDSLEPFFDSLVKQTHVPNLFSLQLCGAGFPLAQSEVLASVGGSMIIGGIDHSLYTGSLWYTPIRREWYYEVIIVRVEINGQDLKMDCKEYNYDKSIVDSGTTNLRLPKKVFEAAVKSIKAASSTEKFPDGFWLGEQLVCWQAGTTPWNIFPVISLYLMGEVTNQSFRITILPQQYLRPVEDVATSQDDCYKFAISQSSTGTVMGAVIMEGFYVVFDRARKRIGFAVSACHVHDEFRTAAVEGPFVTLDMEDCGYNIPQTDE

T1 sequence (P56817 22-452 S174I/N223A): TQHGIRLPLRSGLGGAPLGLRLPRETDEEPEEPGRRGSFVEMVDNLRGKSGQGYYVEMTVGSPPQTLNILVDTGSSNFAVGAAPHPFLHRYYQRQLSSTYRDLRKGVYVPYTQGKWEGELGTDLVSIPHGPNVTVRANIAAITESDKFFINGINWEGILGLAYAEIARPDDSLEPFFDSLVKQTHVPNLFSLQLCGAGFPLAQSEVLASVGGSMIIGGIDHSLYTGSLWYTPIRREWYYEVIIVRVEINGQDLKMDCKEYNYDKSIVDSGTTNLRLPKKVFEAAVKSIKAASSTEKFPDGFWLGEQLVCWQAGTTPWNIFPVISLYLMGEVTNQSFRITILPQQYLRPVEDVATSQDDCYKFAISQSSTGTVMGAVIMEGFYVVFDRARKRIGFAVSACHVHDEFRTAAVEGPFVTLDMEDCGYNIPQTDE

## KTEEISEVN[Sta]VAEF (also called P10-P4′staV; P10-4′staD→V) [P10-P4′staD→V inhibitor peptide, KTEEISEVN[sta]VAEF]
[1]
  binding result: binds
[2]
  binding result: binds
